Data published in patent publication US8986682B2, “Method to increase the absorption of unsaturated fatty acids by human infants” (Swedish Orphan Biovitrum AB (publ), priority 2010, dated 2015).

Tests used:
[1] = tested on: preterm infants born before week 32 of gestational age; settings: in vivo
Text: (§1) The adverse event (AE) reporting period in each study began upon administration of the first dose (Day 1) of investigational medication and ended at the Follow-up Visit (1 week±3 days after the last dose of study drug intake). All AEs that occurred in a patient during the adverse event reporting period were to be reported, whether or not the event was considered medication/product related. In addition, any known untoward event that occurred subsequent to the AE reporting period that the investigator assessed as possibly, probably, or definitely related to the investigational product were also to be reported as an AE.
(§2) MedDRA dictionary version 10.0 was used to classify all AEs reported during either study by system organ class (SOC) and preferred term (PT). All summary tables included counts of patients with treatment-emergent adverse events (TEAEs). The assessment of TEAEs was made in each individual study. […] All TEAEs, treatment related TEAEs (definite, probable, and possible), SAEs, and TEAEs leading to withdrawal of study drug were summarized by MedDRA SOC, PT, and treatment. Both the incidence (proportion of patients) and number of each TEAE were summarized. Additionally, TEAEs were summarized by maximum severity (mild, moderate, or severe). An overall summary of TEAEs was presented by treatment sequence and total and presented the number (%) of patients with TEAEs for each treatment sequence allocated to (1) BSSL only; (2) Placebo only; (3) Both BSSL and placebo; and (4) Neither Treatment.

[2] = tested on: preterm infants born before week 32 of gestational age; test: Treatment-emergent adverse events, studies BVT.BSSL-020/-021
Text: as §1, §2

[3] = Safety Analysis Set, rhBSSL N = 61
[4] = TEAE, Safety Analysis Set, rhBSSL N = 61

B1: rhBSSL: recombinant human bile-salt-stimulated lipase, SEQ ID. NO. 1, expressed from recombinant CHO cells; used in both clinical trials (protein, listed as Homo sapiens)
chain: AKLGAVYTEGGFVEGVNKKLGLLGDSVDIFKGIPFAAPTKALENPQPHPGWQGTLKAKNFKKRCLQATITQDSTYGDEDCLYLNIWVPQGRKQVSRDLPVMIWIYGGAFLMGSGHGANFLNNYLYDGEEIATRGNVIVVTFNYRVGPLGFLSTGDANLPGNYGLRDQHMAIAWVKRNIAAFGGDPNNITLFGESAGGASVSLQTLSPYNKGLIRRAISQSGVALSPWVIQKNPLFWAKKVAEKVGCPVGDAARMAQCLKVTDPRALTLAYKVPLAGLEYPMLHYVGFVPVIDGDFIPADPINLYANAADIDYIAGTNNMDGHIFASIDMPAINKGNKKVTEEDFYKLVSEFTITKGLRGAKTTFDVYTESWAQDPSQENKKKTVVDFETDVLFLVPTEIALAQHRANAKSAKTYAYLFSHPSRMPVYPKWVGADHADDIQYVFGKPFATPTGYRPQDRTVSKAMIAYWTNFAKTGDPNMGDSAVPTHWEPYTTENSGYLEITKKMGSSSMKRSLRTNFLRYWTLTYLALPTVTDQEATPVPPTGDSEATPVPPTGDSETAPVPPTGDSGAPPVPPTGDSGAPPVPPTGDSGAPPVPPTGDSGAPPVPPTGDSGAPPVPPTGDSGAPPVPPTGDSGAPPVPPTGDAGPPPVPPTGDSGAPPVPPTGDSGAPPVTPTGDSETAPVPPTGDSGAPPVPPTGDSEAAPVPPTDDSKEAQMPAVIRF
Urinary tract infection, n (%) of Patients [1]: 1 (1.6%) | Patients who died, n (%) of Patients [2, 3]: 0 | Patients with any TEAE, n (%) of Patients [2, 3]: 29 (47.5%) | Patients with any serious TEAE, n (%) of Patients [2, 3]: 0 | Patients with any severe TEAE, n (%) of Patients [2, 3]: 1 (1.6%) | Anemia neonatal, n (%) of Patients [2, 4]: 2 (3.3%) | Anemia, n (%) of Patients [2, 4]: 3 (4.9%) | Bradycardia, n (%) of Patients [2, 4]: 1 (1.6%) | Cardiac murmur, n (%) of Patients [2, 4]: 4 (6.6%) | Dermatitis diaper, n (%) of Patients [2, 4]: 13 (21.3%) | Hypokalemia, n (%) of Patients [2, 4]: 3 (4.9%) | Thrombocythemia, n (%) of Patients [2, 4]: 0 | Tolerability when added to infant formula or pasteurized breast milk ([2]; preterm infants, combined analysis): well tolerated
